For test [1], the target named is T1, human IgE (human, UniProt P01854 1-546, FITC-, biotin- or 125I-labelled in some assays). Kind of test: soluble receptor ELISA, ratio of 50% inhibition concentrations.
Test [2] concerns the target T1, human IgE. The test is described as above. The source holds these as a separate data set.
Test [3] deals with membrane IgE on U266B1 cells (human, UniProt P01854 1-546). Briefly: FACS on membrane IgE+ U266B1 cells.
Test [4] concerns the target T1, human IgE. Briefly: FACS, blocking of FITC-IgE binding to FcεRII (CD23) on IM9 cells. (A flow cytometer gives signals particle by particle.)

T1 sequence (P01854 whole entry): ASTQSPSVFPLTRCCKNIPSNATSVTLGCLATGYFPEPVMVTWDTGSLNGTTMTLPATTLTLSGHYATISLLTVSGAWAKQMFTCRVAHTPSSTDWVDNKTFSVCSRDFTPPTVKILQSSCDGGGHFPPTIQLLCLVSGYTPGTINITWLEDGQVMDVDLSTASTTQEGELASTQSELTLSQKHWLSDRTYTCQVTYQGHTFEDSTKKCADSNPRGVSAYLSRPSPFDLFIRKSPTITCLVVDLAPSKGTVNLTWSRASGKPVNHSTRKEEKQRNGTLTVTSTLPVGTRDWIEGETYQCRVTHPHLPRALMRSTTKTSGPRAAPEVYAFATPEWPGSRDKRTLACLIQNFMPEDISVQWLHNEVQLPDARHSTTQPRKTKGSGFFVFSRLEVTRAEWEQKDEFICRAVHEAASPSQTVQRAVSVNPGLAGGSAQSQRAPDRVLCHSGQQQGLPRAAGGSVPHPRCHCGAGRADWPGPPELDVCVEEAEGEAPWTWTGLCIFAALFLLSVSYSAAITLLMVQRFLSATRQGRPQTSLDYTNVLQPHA
membrane IgE on U266B1 cells, sequence (P01854 whole entry, one chain of several): as the sequence (P01854 whole entry) above

B1: MaE11 (antibody, mouse IgG1, V domains shown)
VH: DVQLQESGPGLVKPSQSLSLACSVTGYSITSGYSWNWIRQFPGNKLEWMGSITYDGSSNYNPSLKNRISVTRDTSQNQFFLKLNSATAEDTATYYCARGSHYFGHWHFAVWGAGTTVTVSS
VL: DIQLTQSPASLAVSLGQRATISCKASQSVDYDGDSYMNWYQQKPGQPPILLIYAASYLGSEIPARFSGSGSGTDFTLNIHPVEEEDAATFYCQQSHEDPYTFGAGTKLEIK
notes: murine IgG1; also called murine MaE11; MeE11
With B1, in test [1], the “ratio F(ab)-X / F(ab)-2” value is 0.03 and the “ratio F(ab)-X / MaE11” value is 1. Also, in test [2], the “ratio Variant X / IgG1-2” value was determined as 0.06 and the “ratio Variant X / MaE11” value was 1.

B2: MaE13 (antibody, V domains shown)
VH: DVQLQESGPGLVKPSQSLSLTCTVTGYTITSDNAWNWIRQFPGNKLEWMGYINHSGTTSYNPSLKSRISITRDTSKNQFFLQLNSVTTEDTATYYCAWVVAYAMDYWGQGTSVTVSS
VL: DIVMTQSQKFMSTSVGDRVSVTCKASQNVSSNVAWYQQKPGQSPKALIYSASYRYSGVPDRFTGSGSGTDFTLTISNVQSEDLAEYFCQQYYTYPLYTFGGGTKLEIK
Consider B2, for which the figures for the EC50 in test [3] and in test [4] were 1 µg/mL and 0.7 µg/mL, respectively.

B3: MaE15 (antibody, V domains shown)
VH: DVQHQESEPDLVKPSQSLSLTCTVTGYSITSGYNRHWIRQFPGNKLEWMGYIHYSGSTNYNPSLKRRISITRDTSKNQFFLQLNSVTTEDTATYYCARGSIYYYGSRYRYFDVWGAGTTVTVSS
VL: DIQLTQSPASLAVSLGQRATISCKASQSVDYDGDSYMNWYQQKPGQPPKLLIYAASNLESGIPARFSGSGSGTDFTLNIHPVEEEDAATYYCQQSNEDPFTFGAGT
Consider B3, for which the EC50 in test [3] is 6 µg/mL; in test [4] it was 0.6 µg/mL.

One may read the EC50 as the midpoint of the concentration-response curve. Low values mean higher potency in that assay, high ones lower potency in that assay.

Values taken from patent US20030149244A1 (Genentech, published 2003).
